# According to patent publication US20200339657A1, “PEPTIDES AND COMBINATION THEREOF FOR USE IN THE IMMUNOTHERAPY AGAINST CANCERS” (Immatics Biotechnologies GmbH, priority 2017, published 2020):
# How the values were obtained:
# HLA-A*24:02 = HLA-A*24:02 (Homo sapiens, UniProt P04439, D101N/D140Y/D185E/E176V/E190D/F33S/G103R/G107R/I119L/I121M/I306V/K335N/L105A/L180Q/L300P/N151K/N90K/Q86E/Q94H/R106L/R138H/R89G/T104I/T345S/V100E/W191G/Y123F); experiment: MHC binding assay (UV-ligand exchange, β2m ELISA); settings: peptide exchange yield, binding to HLA-A*24:02
# CD8+ T cells = experiment: In vitro immunogenicity: T-cell priming with aAPCs loaded with peptide/MHC and anti-CD28, multimer readout; type: cell-based, human; settings: HLA B*07
# HLA-B*07:02 = HLA-B*07:02 (Homo sapiens, UniProt P01889); experiment: MHC binding assay (UV-ligand exchange, β2m ELISA); settings: peptide exchange yield, binding to HLA-B*07:02
Substance,Peptide exchange (HLA-A*24:02),Peptide exchange (HLA-B*07:02),Wells positive [%] (CD8+ T cells)
113 (VWAKILSAF; listed as Homo sapiens) [compound 113],“+++” (>50 = +++),–,–
114 (KFLDSNIKF; listed as Homo sapiens) [compound 114],“+++” (>50 = +++),–,–
115 (YFEEAANFL; listed as Homo sapiens) [compound 115],“++” (>20% = ++),–,–
116 (LVLDYSKDYNHW; listed as Homo sapiens) [compound 116],“+” (>10% = +),–,–
117 (NFLPPIIARF; listed as Homo sapiens) [compound 117],“++++” (>75% = ++++),–,–
118 (TYISKTIAL; listed as Homo sapiens) [compound 118],“+++” (>50 = +++),–,–
120 (MYAKEFDLL; listed as Homo sapiens) [compound 120],“+++” (>50 = +++),–,–
121 (SYIEKVRFL; listed as Homo sapiens) [compound 121],“+++” (>50 = +++),–,–
122 (KLYGMPTDFGF; listed as Homo sapiens) [compound 122],“++” (>20% = ++),–,–
123 (RQYLAINQI; listed as Homo sapiens) [compound 123],“+” (>10% = +),–,–
125 (IYGPKYIHPSF; listed as Homo sapiens) [compound 125],“++++” (>75% = ++++),–,–
126 (TFQDKTLNF; listed as Homo sapiens) [compound 126],“+++” (>50 = +++),–,–
127 (IFINLSPEF; listed as Homo sapiens) [compound 127],“++++” (>75% = ++++),–,–
128 (SYTKVEARL; listed as Homo sapiens) [compound 128],“+++” (>50 = +++),–,–
129 (VFLNQIYTQL; listed as Homo sapiens) [compound 129],“++” (>20% = ++),–,–
130 (VYGDGHYLTF; listed as Homo sapiens) [compound 130],“+++” (>50 = +++),–,–
133 (SFDSNLLSF; listed as Homo sapiens) [compound 133],“+” (>10% = +),–,–
134 (TYLTGRQF; listed as Homo sapiens) [compound 134],“++” (>20% = ++),–,–
135 (VIAPIISNF; listed as Homo sapiens) [compound 135],“+++” (>50 = +++),–,–
136 (EYNNIQHLF; listed as Homo sapiens) [compound 136],“+++” (>50 = +++),–,–
137 (KYLSLSNSF; listed as Homo sapiens) [compound 137],“++++” (>75% = ++++),–,–
139 (PYASLASELF; listed as Homo sapiens) [compound 139],“++++” (>75% = ++++),–,–
140 (KYLSIPAVF; listed as Homo sapiens) [compound 140],“++++” (>75% = ++++),–,–
141 (KYLSIPAVFF; listed as Homo sapiens) [compound 141],“++++” (>75% = ++++),–,–
144 (IPEPSAQQL; listed as Homo sapiens) [compound 144],–,“++” (>20% = ++),“+” (<20% = +)
146 (SPGDKRLAA; listed as Homo sapiens) [compound 146],–,“+++” (>50 = +++),“++” (20%-49% = ++)
148 (VPDGVSKVL; listed as Homo sapiens) [compound 148],–,“++” (>20% = ++),“+++” (50%-69% = +++)
152 (IPSRLLAIL; listed as Homo sapiens) [compound 152],–,“+++” (>50 = +++),–
153 (APAAVPSAPA; listed as Homo sapiens) [compound 153],–,“+++” (>50 = +++),–
154 (GPGTRLSL; listed as Homo sapiens) [compound 154],–,“++” (>20% = ++),–

# Second part, led by results:
Peptide exchange (HLA-A*24:02),Peptide exchange (HLA-B*07:02),Substance,Wells positive [%] (CD8+ T cells)
–,“++” (>20% = ++),155 (FPYPYAERL; listed as Homo sapiens) [compound 155],“+++” (50%-69% = +++)
–,“+++” (>50 = +++),156 (HPQVVILSL; listed as Homo sapiens) [compound 156],“++” (20%-49% = ++)
–,“++” (>20% = ++),157 (SPSPGKDPTL; listed as Homo sapiens) [compound 157],–
–,“++” (>20% = ++),158 (VPERGEPEL; listed as Homo sapiens) [compound 158],–
–,“++” (>20% = ++),159 (FPAHPSLLL; listed as Homo sapiens) [compound 159],–
–,“+++” (>50 = +++),160 (RPAPADSAL; listed as Homo sapiens) [compound 160],–
–,“++” (>20% = ++),161 (NPYEGRVEV; listed as Homo sapiens) [compound 161],–
–,“++” (>20% = ++),162 (MPMISIPRV; listed as Homo sapiens) [compound 162],–
–,“++” (>20% = ++),163 (RPASSLRP; listed as Homo sapiens) [compound 163],–
–,“++” (>20% = ++),164 (ISTPSEVSTPL; listed as Homo sapiens) [compound 164],“+” (<20% = +)
–,“+++” (>50 = +++),165 (TPIAKVSEL; listed as Homo sapiens) [compound 165],–
–,“++” (>20% = ++),166 (HDPDVGSNSL; listed as Homo sapiens) [compound 166],–
–,“++” (>20% = ++),167 (YPSEVEHMF; listed as Homo sapiens) [compound 167],–
–,“++” (>20% = ++),168 (IPTDKLLVI; listed as Homo sapiens) [compound 168],–
–,“++” (>20% = ++),169 (FPTEVTPHAF; listed as Homo sapiens) [compound 169],–
–,“+++” (>50 = +++),170 (SPMWHVQQL; listed as Homo sapiens) [compound 170],“++++” (>= 70% = ++++)
–,“+++” (>50 = +++),171 (APKLFAVAF; listed as Homo sapiens) [compound 171],–
–,“+++” (>50 = +++),172 (KPAHYPLIAL; listed as Homo sapiens) [compound 172],“+++” (50%-69% = +++)
–,“++” (>20% = ++),173 (MVPSAGQLALF; listed as Homo sapiens) [compound 173],–
–,“+++” (>50 = +++),174 (VPSLQRLML; listed as Homo sapiens) [compound 174],–
–,“++” (>20% = ++),175 (HPIETLVDIF; listed as Homo sapiens) [compound 175],–
–,“++” (>20% = ++),255 (LPDGSRVEL; listed as Homo sapiens) [compound 255],“++++” (>= 70% = ++++)
–,“+++” (>50 = +++),256 (LPALPQQLI; listed as Homo sapiens) [compound 256],–
–,“++” (>20% = ++),257 (SPLRGGSSL; listed as Homo sapiens) [compound 257],–
–,“++” (>20% = ++),258 (APSGTRVVQVL; listed as Homo sapiens) [compound 258],–
–,“++” (>20% = ++),259 (RPAVGHSGL; listed as Homo sapiens) [compound 259],–
